Measured values: article PMC10866546, “Pseudomonas effector AvrB is a glycosyltransferase that rhamnosylates plant guardee protein RIN4” (Science Advances, 2024)
Substitutions are numbered along the chain they refer to.

Target: T1, AvrB (WT), C-terminal 6xHis tag (P. syringae, UniProt P13835 1-321)
T1 construct: AvrB, type III secretion system effector of Pseudomonas syringae; cDNA in pET-29b; source: E. coli BL21 (DE3), purified (Ni2+-NTA)
Test: pull-down; GST-tagged bait (10 μg) and prey (10 μg) with 10 μl glutathione agarose resin in 500 μl of 25 mM Hepes pH 7.4, 150 mM NaCl, 1 mM DTT, 0.1% Triton X-100, 5 mg BSA for blocking; 4°C, 30 min; three washes; SDS-PAGE, Coomassie staining
Conditions: both partners purified

B1: GST-RIN4 T166A (natural protein)
chain: MARSNVPKFGNWEAEENVPYTAYFDKARKTRAPGSKIMNPNDPEYNSDSQSQAPPHPPSSRTKPEQVDTVRRSREHMRSREESELKQFGDAGGSSNEAANKRQGRASQNNSYDNKSPLHKNSYDGTGKSRPKPTNLRADESPEKVTVVPKFGDWDENNPSSADGYAHIFNKVREERSSGANVSGSSRTPTHQSSRNPNNTSSCCCFGFGGK
notes: source: E. coli BL21 (DE3), purified (Ni2+-NTA)
Question: Does B1 bind?
Answer: binds

B2: GST-RIN4 T166E (natural protein)
chain: B1 chain with A166E
notes: as for B1
Question: Does B2 bind?
Answer: binds
